# Measured values: the supplement of paper PMC12458215
# ± gives the uncertainty stated by the source.
# System: HEK293T
# Test: plasma membrane surface immunostaining intensity (anti-HA, deep receptor scanning) (arbitrary fluorescence units); higher = higher plasma membrane expression
Sequence,plasma membrane surface immunostaining intensity (GPCR class: A (Olfactory)),plasma membrane surface immunostaining intensity (GPCR class: A),also measured
MERINHTSSVSEFILLGLSSRPEDQKTLFVLFLIVYLVTITGNLLIILAIRFNPHLQTPMYFFLSFLSLTDICFTTSVVPKMLMNFLSEKKTISYAGCLTQMYFLYALGNSDSCLLAVMAFDRYVAVCDPFHYVTTMSHHHCVLLVAFSCSFPHLHSLLHTLLLNRLTFCDSNVIHHFLCDLSPVLKLSCSSIFVNEIVQMTEAPIVLVTRFLCIAFSYIRILTTVLKIPSTSGKRKAFSTCGFYLTVVTLFYGSIFCVYLQPPSTYAVKDHVATIVYTVLSSMLNPFIYSLRNKDLKQGLRKLMSKRS [OR1L8],177 ± 72,,
MSASNITLTHPTAFLLVGIPGLEHLHIWISIPFCLAYTLALLGNCTLLLIIQADAALHEPMYLFLAMLAAIDLVLSSSALPKMLAIFWFRDREINFFACLAQMFFLHSFSIMESAVLLAMAFDRYVAICKPLHYTKVLTGSLITKIGMAAVARAVTLMTPLPFLLRCFHYCRGPVIAHCYCEHMAVVRLACGDTSFNNIYGIAVAMFIVVLDLLLVILSYIFILQAVLLLASQEARYKAFGTCVSHIGAILAFYTTVVISSVMHRVARHAAPHVHILLANFYLLFPPMVNPIIYGVKTKQIRESILGVFPRKDM [OR52K2],441 ± 130,,
MGTEATEQVSWGHYSGDEEDAYSAEPLPELCYKADVQAFSRAFQPSVSLTVAALGLAGNGLVLATHLAARRAARSPTSAHLLQLALADLLLALTLPFAAAGALQGWSLGSATCRTISGLYSASFHAGFLFLACISADRYVAIARALPAGPRPSTPGRAHLVSVIVWLLSLLLALPALLFSQDGQREGQRRCRLIFPEGLTQTVKGASAVAQVALGFALPLGVMVACYALLGRTLLAARGPERRRALRVVVALVAAFVVLQLPYSLALLLDTADLLAARERSCPASKRKDVALLVTSGLALARCGLNPVLYAFLGLRFRQDLRRLLRGGSCPSGPQPRRGCPRRPRLSSCSAPTETHSLSWDN [CCR10],,424 ± 20,
MASSWPPLELQSSNQSQLFPQNATACDNAPEAWDLLHRVLPTFIISICFFGLLGNLFVLLVFLLPRRQLNVAEIYLANLAASDLVFVLGLPFWAENIWNQFNWPFGALLCRVINGVIKANLFISIFLVVAISQDRYRVLVHPMASRRQQRRRQARVTCVLIWVVGGLLSIPTFLLRSIQAVPDLNITACILLLPHEAWHFARIVELNILGFLLPLAAIVFFNYHILASLRTREEVSRTRCGGRKDSKTTALILTLVVAFLVCWAPYHFFAFLEFLFQVQAVRGCFWEDFIDLGLQLANFFAFTNSSLNPVIYVFVGRLFRTKVWELYKQCTPKSLAPISSSHRKEIFQLFWRN [BDKRB1],,976 ± 180,
MEGDSYHNATTVNGTPVNHQPLERHRLWEVITIAAVTAVVSLITIVGNVLVMISFKVNSQLKTVNNYYLLSLACADLIIGIFSMNLYTTYILMGRWALGSLACDLWLALDYVASNASVMNLLVISFDRYFSITRPLTYRAKRTPKRAGIMIGLAWLISFILWAPAILCWQYLVGKRTVPLDECQIQFLSEPTITFGTAIAAFYIPVSVMTILYCRIYRETEKRTKDLADLQGSDSVTKAEKRKPAHRALFRSCLRCPRPTLAQRERNQASWSSSRRSTSTTGKPSQATGPSANWAKAEQLTTCSSYPSSEDEDKPATDPVLQVVYKSQGKESPGEEFSAEETEETFVKAETEKSDYDTPNYLLSPAAAHRPKSQKCVAYKFRLVVKADGNQETNNGCHKVKIMPCPFPVAKEPSTKGLNPNPSHQMTKRKRVVLVKERKAAQTLSAILLAFIITWTPYNIMVLVSTFCDKCVPVTLWHLGYWLCYVNSTVNPICYALCNRTFRKTFKMLLLCRWKKKKVEEKLYWQGNSKLP [CHRM5],,1470 ± 190,
MLSAGLGLLMLVAVVEFLIGLIGNGSLVVWSFREWIRKFNWSSYNLIILGLAGCRFLLQWLIILDLSLFPLFQSSRWLRYLSIFWVLVSQASLWFATFLSVFYCKKITTFDRPAYLWLKQRAYNLSLWCLLGYFIINLLLTVQIGLTFYHPPQGNSSIRYPFESWQYLYAFQLNSGSYLPLVVFLVSSGMLIVSLYTHHKKMKVHSAGRRDVRAKAHITALKSLGCFLLLHLVYIMASPFSITSKTYPPDLTSVFIWETLMAAYPSLHSLILIMGIPRVKQTCQKILWKTVCARRCWGP [TAS2R5],,,plasma membrane surface immunostaining intensity (GPCR class: Taste): 123 ± 18
MAERNYTVVTEFFLTAFTEHLQWRVPLFLIFLSFYLATMLGNTGMILLIRGDRRLHTPMYFFLSHLSLVDICYSSAIIPQMLAVLWEHGTTISQARCAAQFFLFTFFASIDCYLLAIMAYDRYTAVCQPLLYVTIITEKARWGLVTGAYVAGFFSAFVRTVTAFTLSFCGNNEINFIFCDLPPLLKLSCGDSYTQEVVIIVFALFVMPACILVILVSYLFIIVAILQIHSAGGRAKTFSTCASHLTAVALFFGTLIFMYLRDNTGQSSEGDRVVSVLYTVVTPMLNPLIYSLRNKEVKEATRKALSKSKPARRP [OR9Q2],188 ± 71,,
